{
  "source": "paper PMC11838001",
  "target": "E-cadherin (human (endogenous in NHEK))",
  "sequence (P12830 23-882)": "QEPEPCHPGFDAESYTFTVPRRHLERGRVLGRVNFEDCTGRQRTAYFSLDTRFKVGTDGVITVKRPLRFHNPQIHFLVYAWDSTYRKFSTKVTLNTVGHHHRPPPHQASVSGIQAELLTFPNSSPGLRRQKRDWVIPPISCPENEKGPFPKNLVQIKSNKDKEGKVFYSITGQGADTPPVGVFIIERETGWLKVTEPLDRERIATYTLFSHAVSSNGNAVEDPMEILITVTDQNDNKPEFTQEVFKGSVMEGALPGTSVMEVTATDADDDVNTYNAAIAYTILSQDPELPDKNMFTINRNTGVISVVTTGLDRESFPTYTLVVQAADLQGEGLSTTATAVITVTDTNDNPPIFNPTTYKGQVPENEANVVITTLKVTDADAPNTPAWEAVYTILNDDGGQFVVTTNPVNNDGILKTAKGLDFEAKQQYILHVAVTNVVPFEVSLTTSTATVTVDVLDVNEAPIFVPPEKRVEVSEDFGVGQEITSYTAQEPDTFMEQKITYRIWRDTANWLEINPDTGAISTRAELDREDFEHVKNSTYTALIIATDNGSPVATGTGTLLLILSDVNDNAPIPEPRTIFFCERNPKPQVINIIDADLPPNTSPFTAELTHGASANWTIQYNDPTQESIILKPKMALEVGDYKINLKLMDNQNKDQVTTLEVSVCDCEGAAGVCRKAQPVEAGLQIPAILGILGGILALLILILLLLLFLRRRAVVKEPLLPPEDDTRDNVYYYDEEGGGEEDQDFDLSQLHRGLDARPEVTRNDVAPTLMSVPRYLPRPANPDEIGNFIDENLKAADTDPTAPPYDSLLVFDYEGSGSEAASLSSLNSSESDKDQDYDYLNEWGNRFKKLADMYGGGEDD",
  "assay": "FRET or BRET; FLIM-FRET in fixed, permeabilized NHEK cells, untreated or treated with 6 μM CHIR99021 for 48 hours; β-catenin labelled by antibodies as donor (Alexa Fluor 488), E-cadherin as acceptor (Alexa Fluor 555); FRET efficiency from regions at cell-cell junctions, dual exponential fit",
  "data": [
    {"substance": "β-catenin (from UniProt P35222 1-781) (natural protein)", "values": [
      {"measurement": "fold change of FRET efficiency, CHIR-treated against untreated cells", "value": 3, "unit": "fold"}
    ]}
  ]
}
